These results are taken from patent US20160003843A1 (published 2016).

A word on the Kd: it is a measure of binding affinity in units of concentration. One may read the koff as the rate constant with which the complex falls apart. Broadly, the kon is the rate constant with which the complex forms. Read a high kon as faster complex formation.

Ends that are not written are not given here. Bounds are passed on as bounds.

Test [1] has as its target T1, unphosphorylated Ser peptide (Ser at position 8 of …) (also: fused to NusA, biotinylated on biotin acceptor peptide (BirA), N-terminal His6 tag).
T1 construct: also called Ser/Thr (Ser member); not shown: N-terminal His6 tag and biotin acceptor peptide; NusA, fusion partner
T1 chain: KGNYVVTSH
The test can be described thus: competition phage ELISA; Asp8 to Ser peptide as soluble competitor. An excerpt:
Without being bound by theory, the carboxylate group of Asp8 residue might mimic a phosphorylated residue and thus, the Ab can bind peptides with pSer, pThr, or possibly pTyr in place of Asp8 (Table 5).
Various concentrations of Fab-phage were mixed with a fixed concentration of biotinylated peptide and captured on the NeutrAvidin-coated wells for fifteen minutes. The bound phage were then detected using a horseradish peroxidase (HRP)-conjugated anti-M13 monoclonal (GE Healthcare). For phage competition ELISAs, plates were coated with 10 μg/mL NusA-[…] (the native target for the 1i8i Fab and a weak binder to pSAb, pSTAb, and pYAb), and blocked with 2% BSA. Sub-saturating levels of phage were then pre-bound to the various peptide antigens for two hours at 20° C. and then captured on the NusA-peptide coated plates for fifteen minutes. […] Bound scFv-Fc were detected with HRP-conjugated Protein A (Pierce).
(In general: In an ELISA, binding on a coated surface is turned into a signal by an enzyme label.)

Test [2] deals with Ala mutant peptide (Ala at position 8 of …). In words: competition phage ELISA; Asp8 to Ala peptide as soluble competitor.
For test [3], the target named is T2, unphosphorylated Thr peptide (Thr at position 8 of …).
T2 sequence (chain, enzymatically biotinylated on the biotin acceptor peptide (BirA)): KGNYVVTTH
The test can be described thus: competition phage ELISA; Asp8 to Thr peptide as soluble competitor.

In test [4] the target is Tyr mutant peptide (Tyr at position 8 of …). In words: competition phage ELISA; Asp8 to Tyr peptide as soluble competitor.
The target of test [5] is T3, wild-type peptide KGNYVVTDH (NusA-KGNYVVTDH) (also: fused to NusA, biotinylated on biotin acceptor peptide (BirA), N-terminal His6 tag).
T3 construct: also called WT Asp; the native target for the 1i8i Fab; not shown: N-terminal His6 tag and biotin acceptor peptide; NusA, fusion partner
T3 chain: KGNYVVTDH
In words: SPR (Biacore 4000); biotinylated antigen captured on NeutrAvidin CM5 chip, Fab in flow; 1:1 Langmuir fit. As for the experimental part: Surface plasmon resonance data were measured on a Biacore model 4000 (Biacore, Uppsala, Sweden). All proteins were in TBS containing 0.1 mg/mL BSA and 0.01% Tween-20. A Biacore CM5 chip was coated with NeutrAvidin at 3000 RU and biotinylated antigens were captured at <100 RU.
For orientation: SPR reads the build-up and loss of mass on a sensor chip optically.

B1: humanized Fab (humanized version of the mouse 1i8i Fab; parent scaffold, CDR H2 loop STGGYN) (Fab, V domains shown)
VH: EVQLVESGGGLVQPGGSLRLSCVTSGFTFRKFGMSWVRQAPGKGLEWVASISTGGYNTYYSDSVKGRFTISRDNSKNTLYLQMNSLRAEDTAVYYCTRGYSSTSYAMDYWGQGTLVTVSS
VL: DIVLTQSPATLSLSPGERATLSCMTSTDIDDDMNWYQQKPGQAPRLLISEGNTLRPGVPARFSGSGSGTDFTLTISSLEPEDFAVYYCLQSFNVPLTFGQGTKVEIKR
notes: also called parent Fab; humanized scaffold
Take B1: the “fold less binding than to the wild-type Asp8 peptide” value in test [1], in test [2], in test [3] and in test [4] was over 100 fold each time. In test [5], this molecule registered a Kd of 9.6 nM. In test [5], this molecule gave a koff of 0.0032 s⁻¹. The same molecule came in with a kon in test [5] of 338000 M⁻¹ s⁻¹.
